Kd, koff and kon data for one molecule are collected here from patent publication US20210395374A1.

Test [1] has as its target Cynomolgus CD3ε/δ (cynomolgus monkey) (UniProt Q95LI5). The test is described as follows: kinetic binding analysis (ka/kd); method not stated.
The target in a further test is Human CD3ε/δ (human) (UniProt P07766). The description is as above.
UniProt P07766, sequence (P07766 23-126, stated change not applied, chain 1 of 2): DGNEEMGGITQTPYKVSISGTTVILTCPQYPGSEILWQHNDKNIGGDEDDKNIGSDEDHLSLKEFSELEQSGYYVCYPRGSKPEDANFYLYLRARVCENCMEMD
UniProt P07766, sequence (P04234 22-105, stated change not applied, chain 2 of 2, further chain): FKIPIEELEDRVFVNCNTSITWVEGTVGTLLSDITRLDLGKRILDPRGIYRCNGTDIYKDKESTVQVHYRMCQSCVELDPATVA

UniProt Q95LI5, sequence (Q95LI5 22-117, stated change not applied, chain 1 of 2): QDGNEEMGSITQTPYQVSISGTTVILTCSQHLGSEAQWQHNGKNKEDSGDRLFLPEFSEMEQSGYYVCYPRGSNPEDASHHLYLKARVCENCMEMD
UniProt Q95LI5, sequence (Q95LI8 22-105, stated change not applied, chain 2 of 2, further chain): as the sequence (P04234 22-105, stated change not applied, chain 2 of 2, further chain) above, with I5V, N15K, I20V, S32T, D33N, I34N, T64A, S74N, V83L counted along it

B1: DART-A (sequence-optimized CD123×CD3 bispecific diabody) (bispecific antibody)
chain 1: QAVVTQEPSLTVSPGGTVTLTCRSSTGAVTTSNYANWVQQKPGQAPRGLIGGTNKRAPWTPARFSGSLLGGKAALTITGAQAEDEADYYCALWYSNLWVFGGGTKLTVLGGGGSGGGGEVQLVQSGAELKKPGASVKVSCKASGYTFTDYYMKWVRQAPGQGLEWIGDIIPSNGATFYNQKFKGRVTITVDKSTSTAYMELSSLRSEDTAVYYCARSHLLRASWFAYWGQGTLVTVSSGGCGGGEVAALEKEVAALEKEVAALEKEVAALEK
chain 2: DFVMTQSPDSLAVSLGERVTMSCKSSQSLLNSGNQKNYLTWYQQKPGQPPKLLIYWASTRESGVPDRFSGSGSGTDFTLTISSLQAEDVAVYYCQNDYSYPYTFGQGTKLEIKGGGSGGGGEVQLVESGGGLVQPGGSLRLSCAASGFTFSTYAMNWVRQAPGKGLEWVGRIRSKYNNYATYYADSVKDRFTISRDDSKNSLYLQMNSLKTEDTAVYYCVRHGNFGNSYVSWFAYWGQGTLVTVSSGGCGGGKVAALKEKVAALKEKVAALKEKVAALKE
In general, Kd refers to a measure of binding affinity in units of concentration. A low value points to tighter binding. What is called koff is the rate constant with which the complex falls apart. Higher therefore signals fast dissociation. The kon is a measure of how fast the partners come together. A lower kon goes with slow association. In test [1], B1 gave a Kd of 9.2 nM, a dissociation rate constant (koff) of 0.005 s⁻¹ and a kon of 550000 M⁻¹ s⁻¹. In the test with Human CD3ε/δ (human), the equilibrium dissociation constant (Kd) was determined as 9 nM, the koff was found to be 0.005 s⁻¹ and the kon was 570000 M⁻¹ s⁻¹.
